Results taken from patent US20150346192A1 (Sanofi, published 2015).

T1: CCCH-type zinc finger antiviral protein (rat)
T1 sequence (Q8K3Y6 2-776, looked up): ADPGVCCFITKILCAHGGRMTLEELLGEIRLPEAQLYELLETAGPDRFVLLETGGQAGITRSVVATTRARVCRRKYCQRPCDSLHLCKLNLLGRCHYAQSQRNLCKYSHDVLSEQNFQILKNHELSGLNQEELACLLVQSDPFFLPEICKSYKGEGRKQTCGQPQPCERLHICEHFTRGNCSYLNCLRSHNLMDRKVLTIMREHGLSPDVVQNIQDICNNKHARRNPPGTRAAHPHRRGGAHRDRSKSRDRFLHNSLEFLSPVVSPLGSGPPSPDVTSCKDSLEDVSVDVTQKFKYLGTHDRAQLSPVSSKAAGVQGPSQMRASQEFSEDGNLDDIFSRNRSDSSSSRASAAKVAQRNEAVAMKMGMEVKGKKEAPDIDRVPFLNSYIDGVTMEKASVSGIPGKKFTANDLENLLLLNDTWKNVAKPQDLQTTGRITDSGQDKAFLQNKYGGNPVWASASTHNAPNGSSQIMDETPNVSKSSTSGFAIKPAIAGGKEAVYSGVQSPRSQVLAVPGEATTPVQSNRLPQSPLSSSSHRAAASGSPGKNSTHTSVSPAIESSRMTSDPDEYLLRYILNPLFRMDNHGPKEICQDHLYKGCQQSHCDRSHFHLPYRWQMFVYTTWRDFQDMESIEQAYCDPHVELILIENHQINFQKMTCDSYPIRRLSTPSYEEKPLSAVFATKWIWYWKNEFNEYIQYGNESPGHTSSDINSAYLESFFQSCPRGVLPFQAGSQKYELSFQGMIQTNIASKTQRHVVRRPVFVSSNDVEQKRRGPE

B1: 5H4-VH (other)
VH: MAEVQLVESGGSLVKPGGSLRLSCAASGFTFSNYSMNWVRQAPGKGLEWISSISGSSRYIYYADFVKGRFTISRDNATNSLYLQMNSLRAEDTAVYYCVRDGGLREGFDCWGRGTLVTVSSAAAEQKLISEEDLNGAA
notes: Single human-derived VH domain (truncated scFv, VH only) on the 13R4 framework; produced in E. coli, immobilised on nickel beads; also called 5H4-VH fragment; intracellular antibody 5H4-VH; not shown: C-terminal Myc tag and 6xHis tag from vector pET23NN
B2: scFv 3H2-1 (scFv)
scFv: MAEVQLVESGGSLVKPGGSLRLSCAASGFTFSNYSMNWVRQAPGKGLEWISSISGSSRYIYYADFVKGRFTISRDNATNSLYLQMNSLRAEDTAVYYCVRPIAVSDYWGRGTLVTVSSGGGGSGGGGSGGGGSQSVLTQPASVSGSPGQSITISCAGTSSDVGGYNYVSWYQQHPGKAPKLMIYEDSKRPSGVSNRFSGSKSGNTASLTISGLQAEDEADYYCQTYDGSRAVFGGGTKLAVLGAAAEQKLISEEDLNGAA
notes: also called intracellular antibody 3H2-1; intrabody 3H2-1; not shown: C-terminal Myc tag and 6xHis tag from vector pET23NN

Assays:
[1] = target: T2, PREDICTED: similar to myosin IG (rat); experiment: IP of RBL-2H3 lysate on nickel beads, MS/MS ProtScore; 1st value
T2 construct: Endogenous protein from RBL-2H3 (rat) lysate
Protocol: (§1) They were used to immunoprecipitate protein lysates from RBL-2H3 cells stimulated or not beforehand via the FcεRI. After the immunoprecipitations, the beads were washed in low stringency conditions in order to preserve low affinity bindings.
(§2) After digestion with trypsin, the bands were analysed by mass spectrometry MS/MS using the MALDI-TOF (matrix-assisted laser desorption/ionization time of flight) technique.
(§3) The Mass spectrometer which was used is composed of a laser which ionises previously digested peptides; an analyser which measures the mass/charge (m/z) ratios of the ionised peptides as a function of their flight time; and a detector which records the number of ions for each given m/z ratio. The obtained spectra of m/z ratios allow the identification of peptides and thus proteins present in the samples, by interrogating the Genebank rat database, as well as the mouse database for comparison (the mice Genebank data being more complete). A confidence index or ProtScore is attributed for each protein as a function of the number of identified peptides which are part of its sequence and of the nature of these peptides (composition, size). A ProtScore higher than 3 corresponds to 0.1% probability of identifying a false positive, in other words the probability that this protein is present is 99.9%.

[2] = target: T3, adaptor-related protein complex 2, alpha 1 subunit (rat); experiment: as above
T3 construct: Endogenous protein from RBL-2H3 (rat) lysate
Protocol: as §1, §2, §3

[3] = target: T4, kinesin family member 20A (rat); experiment: as above
T4 construct: Endogenous protein from RBL-2H3 (rat) lysate
Protocol: as §1, §2, §3

vesicle docking protein [4] = target: T5, vesicle docking protein (rat); experiment: as above
T5 construct: Endogenous protein from RBL-2H3 (rat) lysate; a separate GenBank entry from gi 9507177
T5 sequence (P41542 whole entry): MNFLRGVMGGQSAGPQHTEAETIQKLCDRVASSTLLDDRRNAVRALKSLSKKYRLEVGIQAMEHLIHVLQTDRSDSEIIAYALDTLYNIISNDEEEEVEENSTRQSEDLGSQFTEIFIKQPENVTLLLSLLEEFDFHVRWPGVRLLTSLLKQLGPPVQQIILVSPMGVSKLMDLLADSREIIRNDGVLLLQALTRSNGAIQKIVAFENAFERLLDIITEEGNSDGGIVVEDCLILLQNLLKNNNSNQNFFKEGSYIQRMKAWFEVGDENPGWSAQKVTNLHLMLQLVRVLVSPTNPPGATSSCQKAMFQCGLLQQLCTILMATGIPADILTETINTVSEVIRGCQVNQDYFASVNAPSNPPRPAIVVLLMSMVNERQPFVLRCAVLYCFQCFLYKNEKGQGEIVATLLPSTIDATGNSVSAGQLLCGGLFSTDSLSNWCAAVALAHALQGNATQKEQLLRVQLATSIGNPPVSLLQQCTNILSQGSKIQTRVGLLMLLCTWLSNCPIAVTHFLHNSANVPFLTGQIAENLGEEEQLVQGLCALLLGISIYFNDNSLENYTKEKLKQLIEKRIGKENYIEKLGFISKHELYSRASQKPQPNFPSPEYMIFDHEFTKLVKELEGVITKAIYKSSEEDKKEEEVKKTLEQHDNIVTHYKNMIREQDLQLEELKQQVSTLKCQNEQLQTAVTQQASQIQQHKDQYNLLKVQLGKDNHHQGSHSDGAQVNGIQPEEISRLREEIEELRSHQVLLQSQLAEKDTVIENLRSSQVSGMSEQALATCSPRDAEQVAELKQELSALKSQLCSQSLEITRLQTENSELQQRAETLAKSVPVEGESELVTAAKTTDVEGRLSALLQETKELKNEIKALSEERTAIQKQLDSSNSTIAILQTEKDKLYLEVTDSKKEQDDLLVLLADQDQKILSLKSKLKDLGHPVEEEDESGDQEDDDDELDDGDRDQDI
Protocol: as §1, §2, §3

[5] = target: T2, PREDICTED: similar to myosin IG; experiment: IP of RBL-2H3 lysate on nickel beads, MS/MS ProtScore; 2nd value
Protocol: as §1, §2, §3

[6] = target: T3, adaptor-related protein complex 2, …; experiment: as above
Protocol: as §1, §2, §3

[7] = target: T4, kinesin family member 20A; experiment: as above
Protocol: as §1, §2, §3

vesicle docking protein [8] = target: T5, vesicle docking protein; experiment: as above
Protocol: as §1, §2, §3

rCG30986, isoform CRA_a = target: T6, rCG30986, isoform CRA_a (rat); experiment: IP of RBL-2H3 lysate on nickel beads, MS/MS ProtScore
T6 construct: Endogenous protein from RBL-2H3 (rat) lysate
Protocol: as §1, §2, §3

CTP synthase = target: T7, CTP synthase (rat); experiment: as above
T7 construct: Endogenous protein from RBL-2H3 (rat) lysate
Protocol: as §1, §2, §3

[9] = target: T8, metastasis associated 1 family, member 2 (rat); experiment: as above
T8 construct: Endogenous protein from RBL-2H3 (rat) lysate
Protocol: as §1, §2, §3

[10] = target: T9, fragile X mental retardation 1 (rat); experiment: as above
T9 construct: Endogenous protein from RBL-2H3 (rat) lysate
Protocol: as §1, §2, §3

[11] = target: T1, CCCH-type zinc finger antiviral protein; experiment: as above
Protocol: as §1, §2, §3

[12] = target: T10, ATP-binding cassette sub-family F member 1 (rat, UniProt Q6MG08 1-839); experiment: as above
T10 construct: Endogenous protein from lysates of the rat mast cell line RBL-2H3; also called ABCF1; ABCF1 protein
T10 sequence (Q6MG08 whole entry): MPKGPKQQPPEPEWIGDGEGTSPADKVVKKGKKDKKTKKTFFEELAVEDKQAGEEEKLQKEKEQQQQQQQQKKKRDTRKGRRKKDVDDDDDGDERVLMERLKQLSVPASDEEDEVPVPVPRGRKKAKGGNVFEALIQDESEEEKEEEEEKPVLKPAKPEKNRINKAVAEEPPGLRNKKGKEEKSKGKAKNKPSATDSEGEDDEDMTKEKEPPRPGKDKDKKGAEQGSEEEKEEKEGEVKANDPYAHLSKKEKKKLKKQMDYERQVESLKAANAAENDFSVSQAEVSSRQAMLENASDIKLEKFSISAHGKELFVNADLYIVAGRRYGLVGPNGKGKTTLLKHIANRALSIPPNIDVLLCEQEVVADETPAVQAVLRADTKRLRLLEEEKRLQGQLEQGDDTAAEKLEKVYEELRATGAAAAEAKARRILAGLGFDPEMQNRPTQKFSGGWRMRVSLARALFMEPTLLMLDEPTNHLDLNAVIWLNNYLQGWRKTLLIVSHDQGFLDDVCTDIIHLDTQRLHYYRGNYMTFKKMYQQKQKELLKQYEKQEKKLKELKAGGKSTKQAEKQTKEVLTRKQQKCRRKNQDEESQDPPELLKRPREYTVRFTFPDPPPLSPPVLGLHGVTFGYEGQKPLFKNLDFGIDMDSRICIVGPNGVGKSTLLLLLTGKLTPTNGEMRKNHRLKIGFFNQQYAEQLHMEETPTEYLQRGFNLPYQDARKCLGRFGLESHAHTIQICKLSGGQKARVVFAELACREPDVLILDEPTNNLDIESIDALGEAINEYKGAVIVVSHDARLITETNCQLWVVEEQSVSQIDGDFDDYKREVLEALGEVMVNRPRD
Protocol: as §1, §2, §3

[13] = target: T11, guanine nucleotide binding protein-like 2 (rat); experiment: as above
T11 construct: Endogenous protein from RBL-2H3 (rat) lysate
Protocol: as §1, §2, §3

[14] = target: T12, lysine (K)-specific demethylase 1 (rat); experiment: as above
T12 construct: Endogenous protein from RBL-2H3 (rat) lysate
Protocol: as §1, §2, §3

Binder	Protscore IP [1]	Protscore IP [2]	Protscore IP [3]	Protscore IP (vesicle docking protein [4])	Protscore IP [5]	Protscore IP [6]	Protscore IP [7]	Protscore IP (vesicle docking protein [8])	Protscore IP (rCG30986, isoform CRA_a)	Protscore IP (CTP synthase)	Protscore IP [9]	Protscore IP [10]	Protscore IP [11]	Protscore IP [12]	Protscore IP [13]	Protscore IP [14]
B1	8	15	8	8	20	6	10	5	–	–	–	–	–	–	–	–
B2	–	–	–	–	–	–	–	–	10	7	4	4	4	51	10	10
